# Laboratory results published in the supplement of paper PMC9112550, “Optimization of the antimicrobial peptide Bac7 by deep mutational scanning” (BMC Biology, 2022).
# System: Escherichia coli TOP10
# Assay: shrunken log2 fold change of peptide-encoding DNA abundance (4.5 h post-induction vs induction); higher = less antimicrobial activity (less host growth inhibition)
# Settings: time post-induction: 4.5 h; library: site-saturation at positions 5, 18, 19, 20
# 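Further: peptides expressed intracellularly from a pBAD plasmid library in pooled LB shake-flask culture, induced with 0.3% L-arabinose, DNA abundance read by NGS, three biological replicates, DESeq2 with apeglm shrinkage.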
row,Sequence,shrunken log2 fold change
1,RRIRTRPPRLPRPRPRPFILPRP,-0.276
2,RRIRLRPPRLPRPRPRPNRYPRP,0.0611
3,RRIRWRPPRLPRPRPRPWPQPRP,0.273
4,RRIRMRPPRLPRPRPRPRLWPRP,0.103
5,RRIRVRPPRLPRPRPRPWLPPRP,-0.59
6,RRIRRRPPRLPRPRPRPSHMPRP,0.157
7,RRIRPRPPRLPRPRPRPMYCPRP,-0.0366
8,RRIRIRPPRLPRPRPRPKEHPRP,-0.15
9,RRIRTRPPRLPRPRPRPCYNPRP,-0.645
10,RRIRVRPPRLPRPRPRPPGGPRP,0.598
11,RRIRKRPPRLPRPRPRPRTDPRP,0.206
12,RRIRNRPPRLPRPRPRPLVMPRP,-0.126
13,RRIRPRPPRLPRPRPRPSKGPRP,0.0318
14,RRIRMRPPRLPRPRPRPKCWPRP,1
15,RRIRYRPPRLPRPRPRPYTHPRP,-0.508
16,RRIRFRPPRLPRPRPRPNVEPRP,0.0199
17,RRIRERPPRLPRPRPRPRTAPRP,0.131
18,RRIRTRPPRLPRPRPRPGFMPRP,-0.0526
19,RRIRYRPPRLPRPRPRPVIWPRP,-0.262
20,RRIRGRPPRLPRPRPRPSCIPRP,0.423
21,RRIRCRPPRLPRPRPRPGGNPRP,-0.0575
22,RRIRGRPPRLPRPRPRPTTIPRP,0.623
23,RRIRMRPPRLPRPRPRPQFHPRP,-0.237
24,RRIRERPPRLPRPRPRPLHAPRP,-0.0579
25,RRIRYRPPRLPRPRPRPDGHPRP,-0.024

row,Sequence,shrunken log2 fold change
1,RRIRERPPRLPRPRPRPHEWPRP,-0.155
2,RRIRVRPPRLPRPRPRPEDTPRP,0.106
3,RRIRGRPPRLPRPRPRPCYNPRP,0.0333
4,RRIRRRPPRLPRPRPRPICRPRP,0.378
5,RRIRDRPPRLPRPRPRPWINPRP,0.0363
6,RRIRLRPPRLPRPRPRPSVSPRP,-0.0466
7,RRIRRRPPRLPRPRPRPQNNPRP,0.198
8,RRIRNRPPRLPRPRPRPPDFPRP,0.272
9,RRIRCRPPRLPRPRPRPMNLPRP,-0.538
10,RRIRQRPPRLPRPRPRPTSEPRP,0.015
11,RRIRRRPPRLPRPRPRPQWRPRP,0.364
12,RRIRNRPPRLPRPRPRPCLMPRP,-0.299
13,RRIRCRPPRLPRPRPRPRLFPRP,0.437
14,RRIRPRPPRLPRPRPRPPHGPRP,0.374
15,RRIRVRPPRLPRPRPRPGTQPRP,-0.183
16,RRIRIRPPRLPRPRPRPCVWPRP,-0.242
17,RRIRCRPPRLPRPRPRPLKRPRP,-0.052
18,RRIRDRPPRLPRPRPRPDYAPRP,0.016
19,RRIRWRPPRLPRPRPRPIEEPRP,0.0406
20,RRIRPRPPRLPRPRPRPVDEPRP,0.0247
21,RRIRFRPPRLPRPRPRPRLEPRP,0.392
22,RRIRERPPRLPRPRPRPCQIPRP,-0.193
23,RRIRCRPPRLPRPRPRPQWLPRP,-0.133
24,RRIRSRPPRLPRPRPRPFSNPRP,-0.218
25,RRIRPRPPRLPRPRPRPNTRPRP,-0.112

row,Sequence,shrunken log2 fold change
1,RRIRHRPPRLPRPRPRPILIPRP,-0.0862
2,RRIRTRPPRLPRPRPRPLPMPRP,-0.0573
3,RRIRFRPPRLPRPRPRPWSDPRP,-0.159
4,RRIRMRPPRLPRPRPRPMLGPRP,0.141
5,RRIRARPPRLPRPRPRPGWPPRP,0.789
6,RRIRCRPPRLPRPRPRPWMVPRP,-0.559
7,RRIRMRPPRLPRPRPRPWQAPRP,0.00735
8,RRIRNRPPRLPRPRPRPTTGPRP,0.0259
9,RRIRPRPPRLPRPRPRPLVNPRP,-0.549
10,RRIRCRPPRLPRPRPRPEEMPRP,0.028
11,RRIRARPPRLPRPRPRPNNGPRP,0.00213
12,RRIRPRPPRLPRPRPRPTFSPRP,-0.182
13,RRIRTRPPRLPRPRPRPCFEPRP,-0.0858
14,RRIRERPPRLPRPRPRPFRVPRP,-0.0333
15,RRIRGRPPRLPRPRPRPLQKPRP,1.28
16,RRIRGRPPRLPRPRPRPLRHPRP,1.34
17,RRIRFRPPRLPRPRPRPYCRPRP,-0.256
18,RRIRKRPPRLPRPRPRPQKCPRP,0.00165
19,RRIRVRPPRLPRPRPRPMQEPRP,-0.0018
20,RRIRMRPPRLPRPRPRPWYMPRP,-0.147
21,RRIRLRPPRLPRPRPRPCIPPRP,-0.194
22,RRIRRRPPRLPRPRPRPKKEPRP,-0.0417
23,RRIRKRPPRLPRPRPRPQACPRP,-0.109
24,RRIRTRPPRLPRPRPRPWGLPRP,0.00838
25,RRIRARPPRLPRPRPRPLTQPRP,0.209
